Data set [1] has as its target T1, AlpZ (Streptomyces ambofaciens, UniProt Q6VMG9 1-237).
T1 sequence: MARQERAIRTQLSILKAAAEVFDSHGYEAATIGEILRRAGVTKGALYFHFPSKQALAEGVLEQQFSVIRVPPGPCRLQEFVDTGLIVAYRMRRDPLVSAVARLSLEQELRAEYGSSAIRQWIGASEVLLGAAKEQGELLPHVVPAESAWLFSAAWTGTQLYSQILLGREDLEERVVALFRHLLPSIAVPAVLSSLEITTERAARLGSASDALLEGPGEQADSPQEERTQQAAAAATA
The experiment in a line: switchSENSE; AlpZ 50 nM; kON 1.38e5 M-1 s-1, kOFF 1.05e-4 s-1 (printed rates give 0.76 nM, inconsistent with printed KD); switchSENSE: PE40 pH 7.4 (10 mM Na phosphate, 40 mM NaCl, 0.05% Tween20, 50 uM EDTA, 50 uM EGTA), 30 C; EMSA: 20 mM HEPES pH 7.6, 1 mM EDTA, 10 mM (NH4)2SO4, 1. The following applies: protein: recombinant; chain copies: 2; label: fluorescent nanolever on the switchSENSE chip; 40 bp duplex with 3' overhang 48 nt on strand 1, hybridized to chip nanolever.

Data set [2] concerns the target T1, AlpZ. The experiment in a line: switchSENSE; no association observed; switchSENSE: PE40 pH 7.4 (10 mM Na phosphate, 40 mM NaCl, 0.05% Tween20, 50 uM EDTA, 50 uM EGTA), 30 C; EMSA: 20 mM HEPES pH 7.6, 1 mM EDTA, 10 mM (NH4)2SO4, 1. As to conditions: protein: recombinant; chain copies: 2; label: fluorescent nanolever on the switchSENSE chip; 40 bp duplex with 3' overhang 48 nt on strand 1, hybridized to chip nanolever. (In general: A gel shift assay detects complexes by their altered migration in electrophoresis.)

B1: nanoAREV dsoverhang (dsDNA)
DNA 1: CTCACATTGACAAACCGACTGTGCTGTTTTTTTATCAGGGATCAGCGTTCGATGCTTCCGACTAATCAGCCATATCAGCTTACGACTA
DNA 2: CCCTGATAAAAAAACAGCACAGTCGGTTTGTCAATGTGAG
Broadly, the Kd is the constant that tells how readily two partners part at equilibrium. Take B1: in the data set with AlpZ [1], the Kd was found to be 37.1 ± 3.3 nM.

B2: nanoControl dsoverhang (dsDNA)
DNA 1: GGGGGGTGTGAGAACGGGGTGTTCTGGTGTTTGCGCCGGAATCAGCGTTCGATGCTTCCGACTAATCAGCCATATCAGCTTACGACTA
DNA 2: TCCGGCGCAAACACCAGAACACCCCGTTCTCACACCCCCC
In the case of B2, the binding result with AlpZ [2] is given as “no binding”.

The record behind these values is publication PMC7343708, “Molecular Dynamics to Elucidate the DNA-Binding Activity of AlpZ, a Member of the Gamma-Butyrolactone Receptor Family in Streptomyces ambofaciens”.
